Data taken from article PMC2714181.

Columns and labels:
[1] = biological target: Cys29 (UniProt position 29, FWATWCGTSKM); details: reduced active-site thiol(s) implied, not stated; cited from earlier work
[2] = biological target: Cys29 (UniProt position 29, FWATWCGPCKM); details: reduced active-site thiol(s) implied, not stated; cited from earlier work
[3] = biological target: Cys10 (UniProt position 10, TIYFICTGNSA); test: UV-vis; details: poly buffer: 1 mM EDTA, 10 mM Na-borate, 10 mM Na-phosphate, 10 mM Na-citrate (starting pH 8), titrated by stepwise addition of 100 mM HCl; oxidized with arsenate (Cys82-Cys89 disulfide), Cys10 free thiol
[4] = biological target: Cys89 (UniProt position 89, DADNNCPILPP); test: UV-vis; details: poly buffer: 1 mM EDTA, 10 mM Na-borate, 10 mM Na-phosphate, 10 mM Na-citrate, 10 mM CAPS (starting pH 11.4), titrated by stepwise addition of 100 mM HCl; reduced (DTT-treated, DTT removed), free protein
[5] = biological target: Cys32 (UniProt position 33, FWAEWCGPCKM); details: reduced active-site thiol(s) implied, not stated; cited from earlier work

Thioredoxin (Sa_Trx, Trx1) P31T/C32S (Staphylococcus aureus; P31T;C32S)
pKa [1]: 6.4

Thioredoxin (Sa_Trx), wild type (Staphylococcus aureus)
pKa [2]: 7.1

Arsenate reductase ArsC (plasmid pI258), C15A, oxidized form (Staphylococcus aureus; C15A)
pKa [3]: 6.8

Arsenate reductase ArsC (plasmid pI258), C10S/C15A/C82A triple mutant (Sa_ArsC^Trip) (Staphylococcus aureus; C10S;C15A;C82A)
pKa [4]: 9.5

Thioredoxin 1 (Ec_Trx1) (Escherichia coli)
pKa [5]: 7.1
